# In publication PMC9482650, “Quantitative fragmentomics allow affinity mapping of interactomes” (Nature Communications, 2022):
# T1: GRIP1_5, Q9Y3R0
# T1 sequence (Q9Y3R0 568-668, limits assumed, looked up): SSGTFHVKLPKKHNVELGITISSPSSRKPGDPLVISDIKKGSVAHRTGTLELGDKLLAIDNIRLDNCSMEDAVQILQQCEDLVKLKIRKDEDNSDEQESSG
# T2: APBA2_2, Q99767
# T2 sequence (Q99767 654-744, limits assumed, looked up): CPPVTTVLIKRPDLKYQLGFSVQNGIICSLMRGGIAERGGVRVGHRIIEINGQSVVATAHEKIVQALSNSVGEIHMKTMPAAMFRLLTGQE
# T3: MPDZ_12, O75970
# T3 sequence (O75970 1857-1958, limits assumed, looked up): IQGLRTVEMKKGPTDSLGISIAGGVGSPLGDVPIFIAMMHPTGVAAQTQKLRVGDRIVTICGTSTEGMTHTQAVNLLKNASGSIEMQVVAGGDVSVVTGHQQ
# T4: NHERF3_4, Q5T2W1
# T4 sequence (Q5T2W1 373-468, limits assumed, looked up): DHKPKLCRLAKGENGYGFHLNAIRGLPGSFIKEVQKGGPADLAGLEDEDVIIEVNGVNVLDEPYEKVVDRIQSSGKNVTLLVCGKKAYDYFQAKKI
# T5: PTPN13_1, Q12923
# T5 sequence (Q12923 1088-1188, limits assumed, looked up): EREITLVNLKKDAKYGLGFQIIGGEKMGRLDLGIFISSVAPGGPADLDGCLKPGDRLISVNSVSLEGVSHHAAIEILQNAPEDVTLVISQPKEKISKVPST
# T6: SHANK1, Q9Y566
# T6 sequence (Q9Y566 658-767, limits assumed, looked up): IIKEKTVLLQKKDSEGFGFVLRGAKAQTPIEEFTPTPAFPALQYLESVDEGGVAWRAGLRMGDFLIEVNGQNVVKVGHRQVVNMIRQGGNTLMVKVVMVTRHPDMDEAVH
# T7: LNX2_2, Q8N448
# T7 sequence (Q8N448 334-432, limits assumed, looked up): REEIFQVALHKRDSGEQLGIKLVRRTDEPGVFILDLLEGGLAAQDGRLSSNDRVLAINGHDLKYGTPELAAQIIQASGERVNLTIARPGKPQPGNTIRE
# T8: HTRA4, P83105
# T8 sequence (P83105 378-476, limits assumed, looked up): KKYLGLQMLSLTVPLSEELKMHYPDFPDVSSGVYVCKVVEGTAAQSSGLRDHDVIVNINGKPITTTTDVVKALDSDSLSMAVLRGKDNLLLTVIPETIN
# T9: RAPGEF6, Q8TEU7
# T9 sequence (Q8TEU7 525-625, limits assumed, looked up): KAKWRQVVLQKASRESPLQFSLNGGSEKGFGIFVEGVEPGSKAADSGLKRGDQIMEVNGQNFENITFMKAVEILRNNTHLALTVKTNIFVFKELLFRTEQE
# T10: PDZD7_3, Q9H5P4
# T10 sequence (Q9H5P4 857-944, limits assumed, looked up): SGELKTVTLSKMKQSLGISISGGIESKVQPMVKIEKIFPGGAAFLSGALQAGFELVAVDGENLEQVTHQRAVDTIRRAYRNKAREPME
# T11: APBA3_1, O96018
# T11 sequence (O96018 389-490, limits assumed, looked up): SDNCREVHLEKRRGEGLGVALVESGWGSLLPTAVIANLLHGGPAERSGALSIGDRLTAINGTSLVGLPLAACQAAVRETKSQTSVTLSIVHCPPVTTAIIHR
# Molecular target: Inadl_3, Q8NI35
# Experiment: holdup assay
# Design: key: below the threshold = too weak to quantify, mostly under pKd 3.1 to 4
# Settings: plain residues with an end cap or a label only (N-terminal biotin on a linker: ado-ado)
# Sequence of Inadl_3, Q8NI35 (Q8NI35 359-469): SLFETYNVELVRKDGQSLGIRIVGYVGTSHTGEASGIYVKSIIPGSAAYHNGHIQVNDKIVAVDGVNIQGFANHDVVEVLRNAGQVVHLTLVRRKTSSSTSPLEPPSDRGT
row,Binder,pKd
1,"NNNVVKVDSV [MTNR1A, P48039]",below the threshold
2,"SVTSERETNI [SLC16A7, O60669]",below the threshold

# Molecular target: T1, GRIP1_5, Q9Y3R0
# Experiment: holdup assay
# Design: key: below the threshold = too weak to quantify, mostly under pKd 3.1 to 4
# Settings: plain residues with an end cap or a label only (N-terminal biotin on a linker: ado-ado)
row,Binder,pKd
1,"NNNVVKVDSV [MTNR1A, P48039]",below the threshold
2,"SVTSERETNI [SLC16A7, O60669]",below the threshold

# Molecular target: DLG4_2, P78352
# Experiment: holdup assay
# Design: key: below the threshold = too weak to quantify, mostly under pKd 3.1 to 4
# Settings: plain residues with an end cap or a label only (N-terminal biotin on a linker: ado-ado)
# Sequence of DLG4_2, P78352 (P78352 155-259): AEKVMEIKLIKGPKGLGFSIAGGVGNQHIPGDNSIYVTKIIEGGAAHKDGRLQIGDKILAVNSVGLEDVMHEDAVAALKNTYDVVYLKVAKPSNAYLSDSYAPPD
row,Binder,pKd
1,"NNNVVKVDSV [MTNR1A, P48039]",below the threshold
2,"SVTSERETNI [SLC16A7, O60669]",4.11

# Molecular target: T2, APBA2_2, Q99767
# Experiment: holdup assay
# Design: key: below the threshold = too weak to quantify, mostly under pKd 3.1 to 4
# Settings: plain residues with an end cap or a label only (N-terminal biotin on a linker: ado-ado)
row,Binder,pKd
1,"NNNVVKVDSV [MTNR1A, P48039]",below the threshold
2,"SVTSERETNI [SLC16A7, O60669]",below the threshold

# Molecular target: DLG4_3, P78352
# Experiment: holdup assay
# Design: key: below the threshold = too weak to quantify, mostly under pKd 3.1 to 4
# Settings: plain residues with an end cap or a label only (N-terminal biotin on a linker: ado-ado)
# Sequence of DLG4_3, P78352 (P78352 306-403): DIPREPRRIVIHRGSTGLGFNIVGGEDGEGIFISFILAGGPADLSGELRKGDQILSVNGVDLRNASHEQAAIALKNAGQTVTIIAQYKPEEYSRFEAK
row,Binder,pKd
1,"NNNVVKVDSV [MTNR1A, P48039]",below the threshold
2,"SVTSERETNI [SLC16A7, O60669]",below the threshold

# Molecular target: AHNAK1, Q09666
# Experiment: holdup assay
# Design: key: below the threshold = too weak to quantify, mostly under pKd 3.1 to 4
# Settings: plain residues with an end cap or a label only (N-terminal biotin on a linker: ado-ado)
# Sequence of AHNAK1, Q09666 (Q09666 4-100): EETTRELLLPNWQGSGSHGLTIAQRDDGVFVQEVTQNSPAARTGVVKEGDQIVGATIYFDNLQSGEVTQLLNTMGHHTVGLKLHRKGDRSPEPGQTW
row,Binder,pKd
1,"NNNVVKVDSV [MTNR1A, P48039]",below the threshold
2,"SVTSERETNI [SLC16A7, O60669]",below the threshold

# Molecular target: Inadl_9, Q8NI35
# Experiment: holdup assay
# Design: key: below the threshold = too weak to quantify, mostly under pKd 3.1 to 4
# Settings: plain residues with an end cap or a label only (N-terminal biotin on a linker: ado-ado)
# Sequence of Inadl_9, Q8NI35 (Q8NI35 1530-1615): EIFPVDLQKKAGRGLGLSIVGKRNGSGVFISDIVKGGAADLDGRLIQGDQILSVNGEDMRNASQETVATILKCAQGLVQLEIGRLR
row,Binder,pKd
1,"NNNVVKVDSV [MTNR1A, P48039]",below the threshold
2,"SVTSERETNI [SLC16A7, O60669]",below the threshold

# Molecular target: T3, MPDZ_12, O75970
# Experiment: holdup assay
# Design: key: below the threshold = too weak to quantify, mostly under pKd 3.1 to 4
# Settings: plain residues with an end cap or a label only (N-terminal biotin on a linker: ado-ado)
row,Binder,pKd
1,"NNNVVKVDSV [MTNR1A, P48039]",below the threshold
2,"SVTSERETNI [SLC16A7, O60669]",below the threshold

# Molecular target: LNX1_2, Q8TBB1
# Experiment: holdup assay
# Design: key: below the threshold = too weak to quantify, mostly under pKd 3.1 to 4
# Settings: plain residues with an end cap or a label only (N-terminal biotin on a linker: ado-ado)
# Sequence of LNX1_2, Q8TBB1 (Q8TBB1 371-470): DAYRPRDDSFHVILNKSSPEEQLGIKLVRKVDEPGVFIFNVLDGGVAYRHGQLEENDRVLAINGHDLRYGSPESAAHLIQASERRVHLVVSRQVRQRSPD
row,Binder,pKd
1,"NNNVVKVDSV [MTNR1A, P48039]",below the threshold
2,"SVTSERETNI [SLC16A7, O60669]",below the threshold

# Molecular target: DLG2_2, Q15700
# Experiment: holdup assay
# Design: key: below the threshold = too weak to quantify, mostly under pKd 3.1 to 4
# Settings: plain residues with an end cap or a label only (N-terminal biotin on a linker: ado-ado)
# Sequence of DLG2_2, Q15700 (Q15700 189-283): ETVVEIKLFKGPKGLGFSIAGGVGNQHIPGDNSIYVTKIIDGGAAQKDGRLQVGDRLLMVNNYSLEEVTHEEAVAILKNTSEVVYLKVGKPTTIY
row,Binder,pKd
1,"NNNVVKVDSV [MTNR1A, P48039]",below the threshold
2,"SVTSERETNI [SLC16A7, O60669]",3.95

# Molecular target: MAGI2_6, Q86UL8
# Experiment: holdup assay
# Design: key: below the threshold = too weak to quantify, mostly under pKd 3.1 to 4
# Settings: plain residues with an end cap or a label only (N-terminal biotin on a linker: ado-ado)
# Sequence of MAGI2_6, Q86UL8 (Q86UL8 1141-1229): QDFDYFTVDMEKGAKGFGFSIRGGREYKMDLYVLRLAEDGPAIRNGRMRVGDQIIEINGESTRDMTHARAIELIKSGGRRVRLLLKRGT
row,Binder,pKd
1,"NNNVVKVDSV [MTNR1A, P48039]",below the threshold
2,"SVTSERETNI [SLC16A7, O60669]",3.5

# Molecular target: T4, NHERF3_4, Q5T2W1
# Experiment: holdup assay
# Design: key: below the threshold = too weak to quantify, mostly under pKd 3.1 to 4
# Settings: plain residues with an end cap or a label only (N-terminal biotin on a linker: ado-ado)
row,Binder,pKd
1,"NNNVVKVDSV [MTNR1A, P48039]",below the threshold
2,"SVTSERETNI [SLC16A7, O60669]",below the threshold

# Molecular target: DLG1_1, Q12959
# Experiment: holdup assay
# Design: key: below the threshold = too weak to quantify, mostly under pKd 3.1 to 4
# Settings: plain residues with an end cap or a label only (N-terminal biotin on a linker: ado-ado)
row,Binder,pKd
1,"NNNVVKVDSV [MTNR1A, P48039]",below the threshold
2,"SVTSERETNI [SLC16A7, O60669]",3.58

# Molecular target: Inadl_1, Q8NI35
# Experiment: holdup assay
# Design: key: below the threshold = too weak to quantify, mostly under pKd 3.1 to 4
# Settings: plain residues with an end cap or a label only (N-terminal biotin on a linker: ado-ado)
# Sequence of Inadl_1, Q8NI35 (Q8NI35 113-229): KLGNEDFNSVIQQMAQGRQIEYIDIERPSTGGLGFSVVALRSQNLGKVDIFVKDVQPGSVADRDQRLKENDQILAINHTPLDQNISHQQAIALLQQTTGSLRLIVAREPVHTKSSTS
row,Binder,pKd
1,"NNNVVKVDSV [MTNR1A, P48039]",below the threshold
2,"SVTSERETNI [SLC16A7, O60669]",below the threshold

# Molecular target: LNX1_1, Q8TBB1
# Experiment: holdup assay
# Design: key: below the threshold = too weak to quantify, mostly under pKd 3.1 to 4
# Settings: plain residues with an end cap or a label only (N-terminal biotin on a linker: ado-ado)
# Sequence of LNX1_1, Q8TBB1 (Q8TBB1 261-371): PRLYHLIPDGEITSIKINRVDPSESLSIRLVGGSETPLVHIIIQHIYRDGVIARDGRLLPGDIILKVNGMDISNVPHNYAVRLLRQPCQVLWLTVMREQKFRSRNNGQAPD
row,Binder,pKd
1,"NNNVVKVDSV [MTNR1A, P48039]",below the threshold
2,"SVTSERETNI [SLC16A7, O60669]",below the threshold

# Molecular target: T5, PTPN13_1, Q12923
# Experiment: holdup assay
# Design: key: below the threshold = too weak to quantify, mostly under pKd 3.1 to 4
# Settings: plain residues with an end cap or a label only (N-terminal biotin on a linker: ado-ado)
row,Binder,pKd
1,"NNNVVKVDSV [MTNR1A, P48039]",below the threshold
2,"SVTSERETNI [SLC16A7, O60669]",below the threshold

# Molecular target: MAGI2_5, Q86UL8
# Experiment: holdup assay
# Design: key: below the threshold = too weak to quantify, mostly under pKd 3.1 to 4
# Settings: plain residues with an end cap or a label only (N-terminal biotin on a linker: ado-ado)
# Sequence of MAGI2_5, Q86UL8 (Q86UL8 915-1017): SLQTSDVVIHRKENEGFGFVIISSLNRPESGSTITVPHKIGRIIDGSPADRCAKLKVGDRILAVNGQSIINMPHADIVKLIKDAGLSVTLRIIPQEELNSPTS
row,Binder,pKd
1,"NNNVVKVDSV [MTNR1A, P48039]",below the threshold
2,"SVTSERETNI [SLC16A7, O60669]",below the threshold

# Molecular target: PTPN3, P26045
# Experiment: holdup assay
# Design: key: below the threshold = too weak to quantify, mostly under pKd 3.1 to 4
# Settings: plain residues with an end cap or a label only (N-terminal biotin on a linker: ado-ado)
# Sequence of PTPN3, P26045 (P26045 505-587): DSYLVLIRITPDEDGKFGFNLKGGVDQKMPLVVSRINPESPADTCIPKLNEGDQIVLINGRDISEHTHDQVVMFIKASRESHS
row,Binder,pKd
1,"NNNVVKVDSV [MTNR1A, P48039]",below the threshold
2,"SVTSERETNI [SLC16A7, O60669]",4.97

# Molecular target: T6, SHANK1, Q9Y566
# Experiment: holdup assay
# Design: key: below the threshold = too weak to quantify, mostly under pKd 3.1 to 4
# Settings: plain residues with an end cap or a label only (N-terminal biotin on a linker: ado-ado)
row,Binder,pKd
1,"NNNVVKVDSV [MTNR1A, P48039]",below the threshold
2,"SVTSERETNI [SLC16A7, O60669]",below the threshold

# Molecular target: T7, LNX2_2, Q8N448
# Experiment: holdup assay
# Design: key: below the threshold = too weak to quantify, mostly under pKd 3.1 to 4
# Settings: plain residues with an end cap or a label only (N-terminal biotin on a linker: ado-ado)
row,Binder,pKd
1,"NNNVVKVDSV [MTNR1A, P48039]",below the threshold
2,"SVTSERETNI [SLC16A7, O60669]",below the threshold

# Molecular target: PDZRN4_1, Q6ZMN7
# Experiment: holdup assay
# Design: key: below the threshold = too weak to quantify, mostly under pKd 3.1 to 4
# Settings: plain residues with an end cap or a label only (N-terminal biotin on a linker: ado-ado)
# Sequence of PDZRN4_1, Q6ZMN7 (Q6ZMN7 213-318): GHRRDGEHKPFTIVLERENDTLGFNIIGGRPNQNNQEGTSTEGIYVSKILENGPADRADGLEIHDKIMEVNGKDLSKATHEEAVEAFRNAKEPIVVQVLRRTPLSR
row,Binder,pKd
1,"NNNVVKVDSV [MTNR1A, P48039]",below the threshold
2,"SVTSERETNI [SLC16A7, O60669]",below the threshold

# Molecular target: T8, HTRA4, P83105
# Experiment: holdup assay
# Design: key: below the threshold = too weak to quantify, mostly under pKd 3.1 to 4
# Settings: plain residues with an end cap or a label only (N-terminal biotin on a linker: ado-ado)
row,Binder,pKd
1,"NNNVVKVDSV [MTNR1A, P48039]",3.82
2,"SVTSERETNI [SLC16A7, O60669]",below the threshold

# Molecular target: T9, RAPGEF6, Q8TEU7
# Experiment: holdup assay
# Design: key: below the threshold = too weak to quantify, mostly under pKd 3.1 to 4
# Settings: plain residues with an end cap or a label only (N-terminal biotin on a linker: ado-ado)
row,Binder,pKd
1,"NNNVVKVDSV [MTNR1A, P48039]",below the threshold
2,"SVTSERETNI [SLC16A7, O60669]",below the threshold

# Molecular target: FRMPD4, Q14CM0
# Experiment: holdup assay
# Design: key: below the threshold = too weak to quantify, mostly under pKd 3.1 to 4
# Settings: plain residues with an end cap or a label only (N-terminal biotin on a linker: ado-ado)
# Sequence of FRMPD4, Q14CM0 (Q14CM0 67-160): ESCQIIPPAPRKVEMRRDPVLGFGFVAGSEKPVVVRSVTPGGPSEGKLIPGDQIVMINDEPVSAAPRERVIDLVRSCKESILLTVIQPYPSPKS
row,Binder,pKd
1,"NNNVVKVDSV [MTNR1A, P48039]",below the threshold
2,"SVTSERETNI [SLC16A7, O60669]",below the threshold

# Molecular target: LIMK2, P53671
# Experiment: holdup assay
# Design: key: below the threshold = too weak to quantify, mostly under pKd 3.1 to 4
# Settings: plain residues with an end cap or a label only (N-terminal biotin on a linker: ado-ado)
# Sequence of LIMK2, P53671 (P53671 143-248): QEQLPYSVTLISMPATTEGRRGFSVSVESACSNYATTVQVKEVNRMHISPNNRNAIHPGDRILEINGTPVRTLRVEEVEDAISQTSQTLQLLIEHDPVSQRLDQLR
row,Binder,pKd
1,"NNNVVKVDSV [MTNR1A, P48039]",below the threshold
2,"SVTSERETNI [SLC16A7, O60669]",below the threshold

# Molecular target: T10, PDZD7_3, Q9H5P4
# Experiment: holdup assay
# Design: key: below the threshold = too weak to quantify, mostly under pKd 3.1 to 4
# Settings: plain residues with an end cap or a label only (N-terminal biotin on a linker: ado-ado)
row,Binder,pKd
1,"NNNVVKVDSV [MTNR1A, P48039]",below the threshold
2,"SVTSERETNI [SLC16A7, O60669]",4.69

# Molecular target: T11, APBA3_1, O96018
# Experiment: holdup assay
# Design: key: below the threshold = too weak to quantify, mostly under pKd 3.1 to 4
# Settings: plain residues with an end cap or a label only (N-terminal biotin on a linker: ado-ado)
row,Binder,pKd
1,"NNNVVKVDSV [MTNR1A, P48039]",below the threshold
2,"SVTSERETNI [SLC16A7, O60669]",below the threshold
